Data: the RNAGym collection of RNA variant scans (doi:10.7554/elife.80360)

B1: HDV Ribozyme (parent)
chain: GGCCGGCAUGGUCCCAGCCUCCUCGCUGGCGCCGGCUGGGCAACAUUCCGAGGGGACCGUCCCCUCGGUAAUGGCGAAUGGGACCCA

Variants of: B1
Experiment: self-cleavage, relative activity (ratio to wild type); higher = more cleavage; co-transcriptional
With G40U A87G the self-cleavage was 0.578. Work on C41A G81A yielded a self-cleavage of 0.242. In the case of C41G C44U, the self-cleavage is reported as 0.403. C41G U65C gave a self-cleavage of 0.745. For C41G G50A, the self-cleavage was 0.911. For C41G G50C, the self-cleavage was 0.554. With C41A G59A the self-cleavage was 0.844. In the case of C41A G59C, the self-cleavage is reported as 0.911. Work on C41G G80U yielded a self-cleavage of 0.124. With G40A C86G the self-cleavage was 1.01. G40A C86U gave a self-cleavage of 0.989. Work on G40C A43G yielded a self-cleavage of 0.136. With G40C G76C the self-cleavage was 0.197. C41U C75A gave a self-cleavage of 0.0665. C41A G80C showed a self-cleavage of 0.164. C41A G67A showed a self-cleavage of 0.914. Work on C41A G67U yielded a self-cleavage of 0.739. Variant C41G A87C has a self-cleavage of 0.65. In the case of G40U G74U, the self-cleavage is reported as 0.468. Variant G40U G74C has a self-cleavage of 0.111. For C41U C86U, the self-cleavage was 0.967. Variant G40U G81U has a self-cleavage of 0.0989. Work on G40C A51C yielded a self-cleavage of 0.111. In the case of G40U C75G, the self-cleavage is reported as 0.166. For G40U U47G, the self-cleavage was 0.46. For G40C C49G, the self-cleavage was 0.261. C41U A78G gave a self-cleavage of 0.724. G40C C61U gave a self-cleavage of 0.192. Variant C41A A42C has a self-cleavage of 0.739. C41A A42U gave a self-cleavage of 0.743. Variant G40U G53A has a self-cleavage of 0.715. G40A G73U showed a self-cleavage of 0.554. Variant C41G U60A has a self-cleavage of 0.733. With G40U A70G the self-cleavage was 0.528. Work on C41A U65A yielded a self-cleavage of 0.914. In the case of C41G C63U, the self-cleavage is reported as 0.844. For C41A G73A, the self-cleavage was 0.912. Variant C41A G73U has a self-cleavage of 0.873. G40A G59A gave a self-cleavage of 0.87. Variant G40U G54U has a self-cleavage of 0.665. For G40C A45U, the self-cleavage was 0.211. Work on G40C A45G yielded a self-cleavage of 0.32. C41U C64U gave a self-cleavage of 0.892. With C41U C64A the self-cleavage was 0.906. In the case of C41U C64G, the self-cleavage is reported as 0.635. Work on C41U G73A yielded a self-cleavage of 0.929. G40A U46C gave a self-cleavage of 0.525. C41G C86U gave a self-cleavage of 0.657. Variant G40U C58A has a self-cleavage of 0.67. G40U C58U gave a self-cleavage of 0.669. C41A C64G showed a self-cleavage of 0.884. Work on C41A G74U yielded a self-cleavage of 0.513. C41G U72A showed a self-cleavage of 0.499. Variant C41G U72C has a self-cleavage of 0.201. For C41U C85G, the self-cleavage was 0.911. Variant C41U C85A has a self-cleavage of 0.937. G40A G74U showed a self-cleavage of 0.732. With G40A G74C the self-cleavage was 0.485. In the case of C41G A70U, the self-cleavage is reported as 0.746. Variant G40U G67A has a self-cleavage of 0.699. C41U C62G gave a self-cleavage of 0.426. With G40C G74C the self-cleavage was 0.0652. For G40A G52A, the self-cleavage was 0.858. G40A G52U gave a self-cleavage of 0.683. With C41U G68U the self-cleavage was 0.504. With G40C A83U the self-cleavage was 0. With C41U C63U the self-cleavage was 1.12. C41A C44G gave a self-cleavage of 0.323. For C41A A70G, the self-cleavage was 0.916. Variant C41A A70C has a self-cleavage of 0.527. Variant C41U G55A has a self-cleavage of 1.06. C41A A78U showed a self-cleavage of 0.354. C41A C66A gave a self-cleavage of 0.804. In the case of C41A C66G, the self-cleavage is reported as 0.91. In the case of C41A A83G, the self-cleavage is reported as 0.732. C41G G54U showed a self-cleavage of 0.739. Work on G40A U65A yielded a self-cleavage of 0.914. Work on G40U C41G yielded a self-cleavage of 0.729. G40C C58U showed a self-cleavage of 0.354. G40C C85G showed a self-cleavage of 0.16. In the case of C41G C49G, the self-cleavage is reported as 0.597. C41G C49U gave a self-cleavage of 0.608. With G40C C86A the self-cleavage was 0.363. Work on G40A U72G yielded a self-cleavage of 0.437. C41A U79A gave a self-cleavage of 0.656. C41A G82A gave a self-cleavage of 0.223. In the case of C41A G82U, the self-cleavage is reported as 0.348. For C41A G82C, the self-cleavage was 0.289. Work on G40A G55C yielded a self-cleavage of 1.01. C41G C58U showed a self-cleavage of 0.746. In the case of C41G C58A, the self-cleavage is reported as 0.895. Variant C41G A83G has a self-cleavage of 0.759. G40U U46C showed a self-cleavage of 0.227. Work on G40A G50A yielded a self-cleavage of 0.884. C41A U69G showed a self-cleavage of 0.975. Work on C41A U69C yielded a self-cleavage of 0.898. In the case of C41U G52C, the self-cleavage is reported as 0.819. Variant G40C G80U has a self-cleavage of 0.0817. In the case of G40C G80A, the self-cleavage is reported as 0.0723. G40C C63U showed a self-cleavage of 0.409. With C41A A56G the self-cleavage was 1.15. With G40U A83G the self-cleavage was 0.597. Work on G40U A83C yielded a self-cleavage of 0.453. In the case of C41A C86G, the self-cleavage is reported as 0.739. Variant C41U A70C has a self-cleavage of 0.803. Variant G40A C84A has a self-cleavage of 0.917. Work on C41A C62G yielded a self-cleavage of 0.324. With C41G A51G the self-cleavage was 0.499. With C41G A51U the self-cleavage was 1.18. For C41U A45U, the self-cleavage was 0.884. Work on C41U A45G yielded a self-cleavage of 0.575. Work on C41A G76A yielded a self-cleavage of 0.845. G40C U69A showed a self-cleavage of 0.119. C41A C49G gave a self-cleavage of 0.91. In the case of C41G C85G, the self-cleavage is reported as 0.429. With C41G C85U the self-cleavage was 0.629. Work on C41U C48G yielded a self-cleavage of 0.955. In the case of C41G G68U, the self-cleavage is reported as 0.596. Work on G40C G68C yielded a self-cleavage of 0.177. G40U A78G showed a self-cleavage of 0.199. In the case of G40C U60A, the self-cleavage is reported as 0.25. C41U G53A gave a self-cleavage of 1.12. Variant G40U C64A has a self-cleavage of 0.57. With G40U C64U the self-cleavage was 0.59. G40U G80A gave a self-cleavage of 0.197. Work on G40A U69G yielded a self-cleavage of 0.712. With G40C C66A the self-cleavage was 0.282. For G40C C66G, the self-cleavage was 0.253. Work on C41G G82C yielded a self-cleavage of 0.158. G40C U46C gave a self-cleavage of 0.117. With G40U G59U the self-cleavage was 0.732. G40C A42G showed a self-cleavage of 0.196. In the case of G40U A42U, the self-cleavage is reported as 0.496. G40C U65G showed a self-cleavage of 0.237. In the case of C41U C44A, the self-cleavage is reported as 0.353. With C41U C44G the self-cleavage was 0.492. In the case of C41A C48G, the self-cleavage is reported as 0.898. With C41A G55C the self-cleavage was 0.831. With C41U A56C the self-cleavage was 1.04. Work on G40C G73A yielded a self-cleavage of 0.223. Work on G40C G73C yielded a self-cleavage of 0.185. G40C G67U gave a self-cleavage of 0.323. For C41G G73U, the self-cleavage was 0.378. For C41G C62A, the self-cleavage was 0.814. For C41G C62U, the self-cleavage was 0.815. Work on G40U A51U yielded a self-cleavage of 0.806. Variant C41G U47A has a self-cleavage of 1.12. With G40C G54C the self-cleavage was 0.343. For C41U C61G, the self-cleavage was 0.923. In the case of C41A C58G, the self-cleavage is reported as 0.935. Variant G40C C62U has a self-cleavage of 0.324. C41U C84G showed a self-cleavage of 0.589. G40C A77C gave a self-cleavage of 0.151. With G40C A77G the self-cleavage was 0.271. Work on C41G G81U yielded a self-cleavage of 0.166. Variant C41G G81C has a self-cleavage of 0.138. With C41A U47G the self-cleavage was 1.08. With C41A U47C the self-cleavage was 0.932. G40A G82C gave a self-cleavage of 0.0665. With G40A G82U the self-cleavage was 0.198. G40A G76C gave a self-cleavage of 0.947. G40A G76U showed a self-cleavage of 0.843. In the case of G40A G54C, the self-cleavage is reported as 0.926. With G40C C57G the self-cleavage was 0.36. G40C C57A gave a self-cleavage of 0.295. In the case of G40C C57U, the self-cleavage is reported as 0.354. Variant C41U C57A has a self-cleavage of 0.986.
